Results on 1 substance are retold here after patent US7402570.

The target of assay [1] is human p53 protein, full length (human) (UniProt P04637). Description: cell-based or functional assay.
In assay [2] the target is lexA-p53 (p53 codons 1-73) fusion (human). Description: cell-based or functional assay.

Sequence of human p53 protein, full length (human) (P04637 whole entry, the tested form may be a part): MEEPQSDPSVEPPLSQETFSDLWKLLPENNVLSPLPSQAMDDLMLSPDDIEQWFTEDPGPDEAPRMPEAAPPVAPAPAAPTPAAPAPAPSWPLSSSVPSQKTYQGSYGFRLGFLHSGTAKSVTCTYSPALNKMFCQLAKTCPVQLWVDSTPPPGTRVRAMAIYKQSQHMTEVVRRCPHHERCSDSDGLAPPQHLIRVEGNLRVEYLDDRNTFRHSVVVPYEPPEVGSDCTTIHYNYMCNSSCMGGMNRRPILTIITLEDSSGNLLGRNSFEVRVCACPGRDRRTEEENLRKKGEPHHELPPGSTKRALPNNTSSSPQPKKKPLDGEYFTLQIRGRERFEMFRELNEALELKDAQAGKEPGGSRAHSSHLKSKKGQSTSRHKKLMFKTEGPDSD

In the case of human MDM2 protein (hMDM2), full length, the inhibition of p53-mediated transactivation of a p53-responsive β-galactosidase reporter in yeast in assay [1] was determined as 16 fold. The substance also registered a decrease in lexA-responsive β-galactosidase reporter activity in yeast in assay [2] of 5 fold.
